Measured values from publication PMC7263589, “Integration of phage and yeast display platforms: A reliable and cost effective approach for binning of peptides as displayed on-phage” (PLoS ONE, 2020).
Bridge positions count the residues as written; N and C are the ends. Peptide text beside a SMILES is read from it.

Tests used:
[1] = target: FGL-containing peptide phage (FGL Phage); test: flow cytometry on yeast-displayed IL-23, phage detected with anti-M13-AF647; conditions: n = 2; parent: est. 24; read off a plot
IL-23 = target: T1, IL-23 (Homo sapiens, UniProt P29460+Q9NPF7); test: SPR direct binding to captured IL-23-AVI (Biacore T200); conditions: IL-23-AVI captured on streptavidin chip, 25°C, 50 μl/min, 10 mM HEPES pH 7.5, 150 mM NaCl, 0.005% P20, 3% DMSO, 1:1 binding model, multi-cycle (single cycle kinetics for 23–652 and IL-23R), n = 1, 23–447 an estimate, read-out: ka
T1 construct: made in house
T1 sequence (Q9NPF7 20-189): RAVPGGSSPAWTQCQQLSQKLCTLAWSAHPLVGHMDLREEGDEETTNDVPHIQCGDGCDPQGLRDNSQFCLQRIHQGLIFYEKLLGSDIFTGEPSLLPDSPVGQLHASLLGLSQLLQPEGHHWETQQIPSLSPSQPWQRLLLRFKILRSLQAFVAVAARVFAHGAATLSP
T1 sequence (P29460 23-328): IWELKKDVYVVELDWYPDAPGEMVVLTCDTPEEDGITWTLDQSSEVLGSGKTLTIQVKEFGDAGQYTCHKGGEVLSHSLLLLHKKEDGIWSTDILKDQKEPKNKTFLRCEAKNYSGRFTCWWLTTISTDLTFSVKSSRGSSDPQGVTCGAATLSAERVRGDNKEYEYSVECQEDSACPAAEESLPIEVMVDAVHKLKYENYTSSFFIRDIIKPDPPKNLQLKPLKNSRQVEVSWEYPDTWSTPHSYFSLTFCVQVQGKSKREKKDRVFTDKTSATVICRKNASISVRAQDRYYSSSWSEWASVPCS
Description: SPR (Biacore T200, GE Healthcare) was used to determine binding constants of the peptides against IL-23 and their competitiveness to IL-23R. All SPR experiments were performed at 25°C with flow rate of 50 μl/min. Assay buffer used in direct binding experiment was 10 mM HEPES pH 7.5, 150 mM NaCl, 0.005% P20, and 3% DMSO. Assay buffer used in competition experiment was 10 mM HEPES pH 7.5, 150 mM NaCl, 0.005% P20, and 1% BSA. All peptides were reconstituted first in DMSO as 10 mM stocks and then diluted into assay buffer. The proteins used in direct binding and competition SPR are described in S1 Table in S1 File. For direct binding of peptides against IL-23, 2000–9000 RU of IL-23-AVI was captured to streptavidin sensor chips (GE Healthcare, Series S Sensor Chip SA, BR-1005-31). Dilution series with 3-fold increment were prepared for each peptide. Initially, all peptides were tested up to 30 μM. Concentration range for some were then lowered accordingly based on affinity or nuisance behavior at high concentrations. SPR “multi-cycle” type was used for peptides 23–644, 23–437, 23–441, 23–446, and 23–447. Each cycle consisted of 30s of analyte injection and then 60s of buffer flow to monitor dissociation. “Single cycle kinetics” (SCK) type was used for 23–652 due to their long dissociation half-lives. Each SCK cycle consisted of five 60s injections of sample in increasing concentration with a final 600s of dissociation. To study IL-23 and IL-23R interaction, 200–1000 RU of IL-23-AVI and IL-23R-Fc-AVI were captured to streptavidin sensor chip. Dilution series with 3-fold increment of IL-23R-FLAG-HIS and IL-23-HIS were run in SCK cycle type as described above except the final dissociation time were 60-300s. Sensorgrams from the entire titration series for each sample were fitted globally to extract binding kinetics and affinity using Biacore T200 Evaluation Software 2.0 (GE Healthcare) according to a 1:1 binding model. To identify IL-23 binders that can block receptor binding, a competition SPR was established. In each SPR cycle, fresh IL-23R was capture (<1000 RU) by injecting 10 μg/ml of IL-23R-Fc-AVI to a Protein-A flow cell at 10 μl/min flow rate for 30s. Analyte consisted of a mixture of 20 nM of IL-23 protein and a single concentration of peptide was then injected for 30s at 50 μl/min to observe IL-23 binding. Finally, the Protein-A surface was regenerated by 10 mM Glycine pH 1.5 for 30s at 30 μl/min. IL-23 at 20 nM without peptide, “IL-23 only”, was used as control to quantify IL-23 binding without blockage; while “cold” IL-23R was used as a positive control for blockage.

[2] = target: T2, Fluorescently labeled IL-23R, Q5VWK5; test: flow cytometry on yeast-displayed IL-23; conditions: chain shown with the change; n = 1; parent: est. 1.05; read off a plot
T2 chain: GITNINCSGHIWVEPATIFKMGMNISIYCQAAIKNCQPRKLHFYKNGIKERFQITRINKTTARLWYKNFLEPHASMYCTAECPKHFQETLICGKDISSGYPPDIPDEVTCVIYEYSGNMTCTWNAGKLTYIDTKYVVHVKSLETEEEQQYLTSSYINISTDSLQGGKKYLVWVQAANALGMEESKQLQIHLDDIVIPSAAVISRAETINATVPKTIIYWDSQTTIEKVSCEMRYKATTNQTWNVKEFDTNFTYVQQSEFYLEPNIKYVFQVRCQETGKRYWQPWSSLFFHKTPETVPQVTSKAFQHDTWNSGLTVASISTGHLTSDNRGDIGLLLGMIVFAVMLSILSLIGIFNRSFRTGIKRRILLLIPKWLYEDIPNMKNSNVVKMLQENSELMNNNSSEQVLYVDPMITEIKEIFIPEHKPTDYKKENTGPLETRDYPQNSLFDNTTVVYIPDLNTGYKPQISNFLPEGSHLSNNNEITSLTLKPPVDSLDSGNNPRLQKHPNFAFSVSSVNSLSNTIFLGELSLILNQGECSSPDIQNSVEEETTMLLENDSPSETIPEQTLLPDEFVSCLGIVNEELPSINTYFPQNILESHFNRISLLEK

IL-23-AVI [3] = target: T3, IL-23-AVI (human, UniProt Q9NPF7 20-189; P29460 23-328); test: SPR; Biacore T200, 25°C, 50 μl/min; 2000–9000 RU of IL-23-AVI captured to streptavidin chip, peptides as analyte (3-fold series, up to 30 μM); 10 mM HEPES pH 7.5, 150 mM NaCl, 0.005% P20, 3% DMSO; multi-cycle, single cycle kinetics for 23–652; 1:1 model; n = 1; conditions: both partners purified
T3 construct: IL-23 p19 subunit, human; IL-12/IL-23 p40 subunit, human; Captured on streptavidin chips and beads, so biotinylation of the Avi tag is implied; also called Avi-tagged IL-23; recombinant IL-23
T3 sequence (looked up) 1: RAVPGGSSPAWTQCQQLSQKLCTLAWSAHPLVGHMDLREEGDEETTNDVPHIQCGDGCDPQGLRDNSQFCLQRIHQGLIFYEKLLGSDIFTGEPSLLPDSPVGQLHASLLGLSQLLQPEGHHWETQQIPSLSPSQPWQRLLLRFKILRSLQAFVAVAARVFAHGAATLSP
T3 sequence (looked up) 2: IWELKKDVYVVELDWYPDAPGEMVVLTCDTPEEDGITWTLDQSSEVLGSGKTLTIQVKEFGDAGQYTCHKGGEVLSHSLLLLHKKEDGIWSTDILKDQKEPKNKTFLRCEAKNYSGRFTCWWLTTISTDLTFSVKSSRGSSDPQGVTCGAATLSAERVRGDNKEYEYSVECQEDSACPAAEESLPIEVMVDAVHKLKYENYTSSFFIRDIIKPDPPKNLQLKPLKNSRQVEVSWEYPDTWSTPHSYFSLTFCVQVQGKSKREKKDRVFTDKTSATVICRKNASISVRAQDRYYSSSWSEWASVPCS

IL-23-AVI [4] = target: T3, IL-23-AVI; test: AlphaScreen or HTRF; AlphaLISA; IL-23-AVI (1.5 nM) pre-incubated with peptide 30 min, then FLAG-tagged IL-23R (3 nM); streptavidin donor and anti-FLAG acceptor beads; 25 mM HEPES pH 7.4, 150 mM NaCl, 0.02% Tween 20, 0.1% BSA; room temperature; n = 1; conditions: both partners purified
IL-23-AVI [5] = target: T3, IL-23-AVI; test: AlphaScreen or HTRF; TR-FRET; compounds pre-incubated with IL-23R-FLAG 1 h, then IL-23-AVI; Europium-streptavidin and anti-FLAG-allophycocyanin; 25 mM HEPES, 150 mM NaCl, 0.02% Tween 20, 0.1% BSA, pH 7.4, 1% DMSO; n = 1; conditions: both partners purified

Molecule “wild-type IL-23 displayed on yeast (from UniProt Q9NPF7;P29460) W137A” has a response [1] of 23.

CC(C)C[C@H](NC(=O)CN)C(=O)N[C@@H](CCCNC(=N)N)C(=O)N[C@@H](CCC(=O)O)C(=O)N[C@@H](CCCNC(=N)N)C(=O)N[C@H]1CSSC[C@@H](C(=O)N[C@@H](CCC(N)=O)C(=O)N[C@@H](CC(N)=O)C(=O)N[C@@H](Cc2c[nH]c3ccccc23)C(=O)N[C@@H](Cc2ccc(O)cc2)C(=O)N[C@@H](Cc2c[nH]c3ccccc23)C(=O)O)NC(=O)[C@H](Cc2ccccc2)NC(=O)[C@H](CCC(=O)O)NC(=O)[C@H](Cc2c[nH]cn2)NC(=O)CNC(=O)[C@H](Cc2ccc(O)cc2)NC(=O)[C@H](CC(N)=O)NC(=O)[C@H](CCCNC(=N)N)NC(=O)[C@H](C(C)C)NC1=O [23–446] (H-GLRERCVRNYGHEFCQNWYW-OH; disulfide 6-15) was tested, and the kon (IL-23) was 3.88e+06 M⁻¹ s⁻¹.

B1: wild-type IL-23 displayed on yeast, Q9NPF7;P29460 K145A (protein)
chain 1: RAVPGGSSPAWTQCQQLSQKLCTLAWSAHPLVGHMDLREEGDEETTNDVPHIQCGDGCDPQGLRDNSQFCLQRIHQGLIFYEKLLGSDIFTGEPSLLPDSPVGQLHASLLGLSQLLQPEGHHWETQQIPSLSPSQPWQRLLLRFAILRSLQAFVAVAARVFAHGAATLSP
chain 2: IWELKKDVYVVELDWYPDAPGEMVVLTCDTPEEDGITWTLDQSSEVLGSGKTLTIQVKEFGDAGQYTCHKGGEVLSHSLLLLHKKEDGIWSTDILKDQKEPKNKTFLRCEAKNYSGRFTCWWLTTISTDLTFSVKSSRGSSDPQGVTCGAATLSAERVRGDNKEYEYSVECQEDSACPAAEESLPIEVMVDAVHKLKYENYTSSFFIRDIIKPDPPKNLQLKPLKNSRQVEVSWEYPDTWSTPHSYFSLTFCVQVQGKSKREKKDRVFTDKTSATVICRKNASISVRAQDRYYSSSWSEWASVPCS
B1 gave a ratio to parent [2] of 0.18.

B2: peptide 23–644 (free, chemically synthesized) (peptide)
peptide: HVPDPCWFGLLCDVLNS
notes: selected from a peptide phage library against IL-23; Two cysteines; also called FGL-containing peptide; source: synthetic peptide (CPC Scientific)
For B2, the Kd (IL-23-AVI [3]) was 2620 nM, the koff (IL-23-AVI [3]) was 0.129 s⁻¹ and the kon (IL-23-AVI [3]) was 49300 M⁻¹ s⁻¹.

B3: peptide 23–446 (free, chemically synthesized) (peptide)
peptide: GLRERCVRNYGHEFCQNWYW
notes: selected from a peptide phage library against IL-23; Two cysteines; source: synthetic peptide (CPC Scientific)
With B3 the IC50 (IL-23-AVI [4]) was 240 nM, the IC50 (IL-23-AVI [5]) was 590 nM and the Kd (IL-23-AVI [3]) was 22.3 nM. For the same molecule, the koff (IL-23-AVI [3]) was 0.0863 s⁻¹ and the kon (IL-23-AVI [3]) was 3.88e+06 M⁻¹ s⁻¹.

B4: peptide 23–652 (free, chemically synthesized) (peptide)
peptide: DTLTKSFCYFGTWCQMYGST
notes: selected from a peptide phage library against IL-23; Two cysteines; also called FGLT-containing peptide; FGL-containing peptide; source: synthetic peptide (CPC Scientific)
With B4 the Kd (IL-23-AVI [3]) was 71.8 nM, the koff (IL-23-AVI [3]) was 0.00263 s⁻¹ and the kon (IL-23-AVI [3]) was 36600 M⁻¹ s⁻¹.
